Experiment [1] deals with T1, SARS-CoV-2 RBD protein Avi-tag biotinylated (AcroBiosystems SPD-C82E9) (SARS-CoV-2, UniProt P0DTC2 330-518).
The target of experiment [2] is T2, Mouse IgG1 Fc fused SARS-CoV-2 RBD (Sino Biological) (SARS-CoV-2; mouse, UniProt P0DTC2 330-518).
The target of experiment [3] is T3, monomeric human Fc-fused SARS-CoV-2_RBD-SD1 (SARS-CoV-2, UniProt P0DTC2 319-591). Put plainly: BLI kinetics on RBD-mono-hFc, 1:1 fit, mean ± SD, n = 2 [upper graph]. In general terms: In BLI a coated tip is dipped into the sample, and binding shifts an interference pattern.
Experiment [4] has as its target T3, monomeric human Fc-fused …. As to the kind of experiment: BLI, RBD-SD1-mono-hFc on AHC tips.
Experiment [5] has as its target T3, monomeric human Fc-fused …. Put plainly: BLI kinetics on RBD-mono-hFc, 1:1 fit, mean ± SD, n = 2.
For experiment [6], the target named is T2, Mouse IgG1 Fc fused SARS-CoV-2 RBD …. This is another data set of the same source.
Experiment [7] deals with SARS-CoV-2 spike, full length, on cells or on pseudotyped/authentic virus (SARS-CoV-2, UniProt P0DTC2 14-1273). As to the kind of experiment: cell-based or functional assay.
The target of experiment [8] is T2, Mouse IgG1 Fc fused SARS-CoV-2 RBD …. The source holds these as a separate data set.
Experiment [9] shares this target. As to the kind of experiment: BLI, RBD-mFc on AMC tips, global 1:1 fit.
The target of experiment [10] is T3, monomeric human Fc-fused …. Put plainly: BLI kinetics on RBD-mono-hFc, 1:1 fit, mean ± SD, n = 2 [lower graph].
The target of experiment [11] is T2, Mouse IgG1 Fc fused SARS-CoV-2 RBD …. This is another data set of the same source.
Experiment [12] addresses T1, SARS-CoV-2 RBD protein Avi-tag …. This is another data set of the same source.
Experiment [13] has the same target. This is another data set of the same source.
For experiment [14] the target is unchanged. The source holds these as a separate data set.

Usually IC50 stands for the midpoint of a concentration-inhibition curve. By Kd is commonly meant the constant that tells how readily two partners part at equilibrium. The low end stands for higher affinity, the high end for lower affinity. The term koff denotes the rate constant with which the complex falls apart. Higher therefore signals a short-lived complex. One may read the kon as the second-order rate constant of association. A low value points to slow association. In general, EC50 refers to the midpoint of the concentration-response curve. A higher EC50 goes with weaker potency.

Where two headings read alike, the source gives them in different places.

B1: VHH3.36 (VHH)
VHH: QVQLQESGGGLVQAGDSLRLSCVVSGGTFSSYAMGWFRQAPGKERELVAAINWGGISVYYADSVKGRFTISRDNAENTVYLQMNSLKPEDTAVYYCAADPKGWSEWDMEYWGKGTQVTVSS
As to B1, half-maximal inhibition in [1] (IC50) was put at 0.156 nM.

B2: VHH3.47 (VHH)
VHH: QVQLQESGGGLVQAGDSLRLSCAASGHNFSTYAMAWFRQAPGTERELVAAISENDVMRYYADSVKGRFTISRDNAKNMAYLQMNSLKVEDTAVYLCAADPKGWSEWDMDYWGKGTQVTVSS
Turning to B2, the IC50 in experiment [1] came out at 0.297 nM.

B3: VHH3.35 (VHH)
VHH: QVQLQESGGGLVQAGGSLTLSCEVSGRTNDNYGVGWFRQVPGAERELVAAIRWSSISRYYKDSVKGRFTISRDNAKNTVYLQMDMLKAEDTAVYYCAADPAGWSEFGMEYWGKGTQVTVSS
Turning to B3, half-maximal inhibition in [1] (IC50) required 0.406 nM.

B4: VHH3.55 (VHH)
VHH: QVQLQESGGGLVQAGGSLRLSCEVSGRTNDNYGVGWFRQVPGAERELVAAIRWSSISRYYKDSVKGRFTISRDNAKNTVYLQMDMLKPEDTAAYYCAADPAGWSEFGMEYWGKGTQVTVSS
B4 showed an IC50 in [1] of 0.322 nM.

B5: D72-52: VHH72_h1_E1D_S56A-([change])2-hIgG1hinge_EPKSCdel-hIgG1Fc_LALAPG_Kdel (Fc fusion)
chain: DVQLVESGGGLVQPGGSLRLSCAASGRTFSEYAMGWFRQAPGKEREFVATISWSGGATYYTDSVKGRFTISRDNAKNTVYLQMNSLRPEDTAVYYCAAAGLGTVVSEWDYDYDYWGQGTLVTVSSGGGGSGGGGSDKTHTCPPCPAPEAAGGPSVFLFPPKPKDTLMISRTPEVTCVVVDVSHEDPEVKFNWYVDGVEVHNAKTKPREEQYNSTYRVVSVLTVLHQDWLNGKEYKCKVSNKALGAPIEKTISKAKGQPREPQVYTLPPSRDELTKNQVSLTCLVKGFYPSDIAVEWESNGQPENNYKTTPPVLDSDGSFFLYSKLTVDKSRWQQGNVFSCSVMHEALHNHYTQKSLSLSPG
Take B5: in [2], the IC50 was determined as 0.199 mg/L.

B6: VHH3.29 (VHH)
VHH: QVQLQESGGGLVQAGGSLRLSCVASGRTFSSGGMGWFRQAPGQEREFVAGIGWAGLSSYYLDSVKGRFTISLDNAKNTVYLQMNMLKPEDTGVYYCAADDHGWSAAGMDYLGQGTQVTVSS
Take B6: in experiment [1], the midpoint of inhibition, the IC50, lay at 0.389 nM.

B7: VHH3.77 (VHH)
VHH: QVQLQESGGGLVQAGGSLRLSCVSSGRAFGNGAVGWFRQGPGRPREFVATVSWNGGGTYFAESVRGRFTISRDNAKNTVYLQMNNLKPEDTAVYYCALAGEGTVVSEWDYDYEYWGQGTQVTVSS
As to B7, it took 0.237 nM to reach half-maximal inhibition in experiment [1] (IC50). In experiment [3], this molecule displayed a Kd of 0.153 nM, an off-rate (koff) of 0.000297 s⁻¹ and a kon of 1.96e+06 M⁻¹ s⁻¹. Moreover, the Kd in experiment [4] worked out at 0.15 nM.

B8: VHH3BE4 (VHH)
VHH: QVQLQESGGGLVQAGGSLRLSCVASGRAFGNGAVGWFRQAPGREREFVATVSWNGGGTYYAESVRGRFTISRDNAKSTVYLQMNSLKPEDTAVYYCASAGEGTVVSEWDYDYDYWGQGTQVTVSS
For the molecule B8, in experiment [1], half-maximal inhibition (IC50) was put at 0.212 nM.

B9: VHH3.144 (VHH)
VHH: QVQLQESGGGLVQAGGSLRLSCVASGRAFGNGAVGWFRQAPGREREFVATVSWNGGGTYYAESVRGRFTISRDNAKSTVYLQMNSLKPEDTAVYYCASAGEGTVVSEWDYDYDYWGQGTQVTVSS
For B9, in experiment [1], the IC50 amounted to 0.397 nM.

B10: VHH3.17 (VHH)
VHH: QVQLQESGGGLVEAGGSLTLSCAASGRAFGDGAVGWFRQGPGRPREFVATVSWNGGGTYFAESVRGRFTISRDNAKNTVYLQMNNLKPEDTAVYYCALAGEGTVVSEWDYDYEYWGQGTQVTVSS
B10 had an IC50 in experiment [1] of 0.316 nM. The molecule further displayed a Kd in experiment [4] of 0.234 nM. In experiment [5], this molecule returned an off-rate constant (koff) of 0.000358 s⁻¹ and a kon of 1.54e+06 M⁻¹ s⁻¹.

B11: D72-22: h1-VHH72-[change]-GS-hIgG1hinge-hIgG1Fc (Fc fusion)
chain: EVQLVESGGGLVQPGGSLRLSCAASGRTFSEYAMGWFRQAPGKEREFVATISWSGGATYYTDSVKGRFTISRDNAKNTVYLQMNSLRPEDTAVYYCAAAGLGTVVSEWDYDYDYWGQGTLVTVSSGS
For the molecule B11, in experiment [6], the affinity, expressed as Kd, was 0.0471 nM; the koff is 4.87e-05 s⁻¹; the kon came out at 1.07e+06 M⁻¹ s⁻¹. Moreover, the “IC50, plaque reduction neutralization, authentic SARS-CoV-2” value in [7] is 0.12 mg/L. In experiment [8], this molecule showed an EC50 of 0.00439 mg/L.

B12: D72-17: h1-VHH72-GS-hIgG1hinge-hIgG1Fc-L234A-L235A-P329G (Fc fusion)
chain: EVQLVESGGGLVQPGGSLRLSCAASGRTFSEYAMGWFRQAPGKEREFVATISWSGGSTYYTDSVKGRFTISRDNAKNTVYLQMNSLRPEDTAVYYCAAAGLGTVVSEWDYDYDYWGQGTLVTVSSGS
notes: ExpiCHO
In [9], B12 came in with a Kd of 0.1 nM, a koff of 0.000178 s⁻¹ and a kon of 1.77e+06 M⁻¹ s⁻¹. The same molecule showed a 50% effective concentration (EC50) in experiment [8] of 0.00836 mg/L.

B13: D72-15: VHH72-GS-hIgG1hinge-hIgG1Fc-L234A-L235A-P329G (Fc fusion)
chain: QVQLQESGGGLVQAGGSLRLSCAASGRTFSEYAMGWFRQAPGKEREFVATISWSGGSTYYTDSVKGRFTISRDNAKNTVYLQMNSLKPDDTAVYYCAAAGLGTVVSEWDYDYDYWGQGTQVTVSSGS
notes: ExpiCHO
In experiment [9], B13 registered a Kd of 0.13 nM, a koff of 0.000297 s⁻¹ and a kon of 2.29e+06 M⁻¹ s⁻¹. This molecule also gave an EC50 in [8] of 0.0108 mg/L.

B14: VHH3.83 (VHH)
VHH: QVQLQESGGGLVQPGDSLRLSCVLSGGVFTSYAMGWFRQAPGKEREFLAAITFNSDATYYADSVKGRFTISRDNAKNTAYLQMNSLKPNDTAVYSCAAGGNHYNPQYYHDYDKYDHWGQGTQVTVSS
Consider B14, for which the IC50 in experiment [1] was 0.162 nM.

B15: VHH3.149 (VHH)
VHH: QVQLQESGGGLVQAGGSLKLSCAASGRTFSSYALGWFRQAPGTEREFVSAINWFGAPTYYADSVKGRFTISRDNAKNTVYLQMDNLKPEDTAVYYCAADSKGWDPQDMDYWGKGTQVTVSS
Turning to B15, the 50% inhibitory concentration (IC50) in [1] worked out at 0.334 nM.

B16: VHH3.115 (VHH)
VHH: QVQLQESGGGLVQTGGSLRLSCAASGLTFSDIAMGWFRQAPGREREFVATISWSGGGTYYAEPVRGRFAISRDNAKNTVYLQMNSLKPEDTAVYYCAAAGAGTVVSEWDYDYDYWGQGTQVTVSS
B16 came in with an IC50 in experiment [1] of 0.409 nM. Further, the affinity in [4], expressed as Kd, was 0.734 nM. In experiment [10], the off-rate (koff) was 0.00157 s⁻¹ and the kon worked out at 2.14e+06 M⁻¹ s⁻¹.

B17: VHH72_h1(E1D,S56A) sequence optimized (SO), monovalent (VHH)
VHH: DVQLVESGGGLVQPGGSLRLSCAASGRTFSEYAMGWFRQAPGKEREFVATISWSGGATYYTDSVKGRFTISRDNAKNTVYLQMNSLRPEDTAVYYCAAAGLGTVVSEWDYDYDYWGQGTLVTVSS
B17: the results for the off-rate constant (koff) in experiment [11] and in experiment [12] were 0.00568 s⁻¹ and 0.0024 s⁻¹, respectively.

B18: PB9677 hIgG4 FALA (Fc fusion)
VHH: DVQLVESGGGLVQPGGSLRLSCAASGRTFSEYAMGWFRQAPGKEREFVATISWSGGATYYTDSVKGRFTISRDNAKNTVYLQMNSLRPEDTAVYYCAAAGLGTVVSEWDYDYDYWGQGTLVTVSS
On to B18, for which, in experiment [13], the “IC50 (read off the curve)” value was about 0.02 mg/L.

B19: VHH2.50 (VHH)
VHH: QVQLQESGGGLVQAGGSLRLSCAASGRTFSSIAMGWFRQAPGKEREFVATISWSGGSTYYADSVKGRFTISRDNAKNTVYLQMNSLKPEDTAVYYCAAAGLGTVVSEWDYDYDYWGQGTQVTVSS
As to B19, the IC50 in experiment [1] worked out at 27.7 nM.

B20: VHH72_h1 (E1D) (VHH)
VHH: DVQLVESGGGLVQPGGSLRLSCAASGRTFSEYAMGWFRQAPGKEREFVATISWSGGSTYYTDSVKGRFTISRDNAKNTVYLQMNSLRPEDTAVYYCAAAGLGTVVSEWDYDYDYWGQGTLVTVSS
As for B20, the Kd in [14] is 10.4 nM; in experiment [11], 31.1 nM. The koff in experiment [14] was determined as 0.00204 s⁻¹; in experiment [11], 0.0313 s⁻¹; in experiment [12] it was 0.00354 s⁻¹.

B21: VHH3.38 (VHH)
VHH: QVQLQESGGGLVQAGGSLRLSCAASGGTFNNYAMAWFRQAPGQERELVAAMFWSGLPKYYADSVKGRFTISTDDAKNTVYLQMNGLKPEDTAVYYCAADSRGWSDVGGMDYWGKGTQVTVSS
In turn, B21 displayed an IC50 in experiment [1] of 0.769 nM.

(Values after US20230227537A1 (VIB VZW, published 2023).)
